Test results published in patent publication US20160097096A1 (KOREA RESEARCH INSTITUTE OF BIOSCIENCE AND BIOTECHNOLOGY, published 2016).

Molecular target: T1, human Desmoglein 2 (Dsg2) (human, UniProt Q14126 50-1118)
T1 construct: whole, on cells; Endogenous protein; In flow cytometry it stood on the surface of H1, H9 and iPSC cells; In immunoprecipitation and Western blotting it came from lysate of (surface-biotinylated) H9 cells, with bands of 165 kDa or 100 kDa
T1 sequence (looked up): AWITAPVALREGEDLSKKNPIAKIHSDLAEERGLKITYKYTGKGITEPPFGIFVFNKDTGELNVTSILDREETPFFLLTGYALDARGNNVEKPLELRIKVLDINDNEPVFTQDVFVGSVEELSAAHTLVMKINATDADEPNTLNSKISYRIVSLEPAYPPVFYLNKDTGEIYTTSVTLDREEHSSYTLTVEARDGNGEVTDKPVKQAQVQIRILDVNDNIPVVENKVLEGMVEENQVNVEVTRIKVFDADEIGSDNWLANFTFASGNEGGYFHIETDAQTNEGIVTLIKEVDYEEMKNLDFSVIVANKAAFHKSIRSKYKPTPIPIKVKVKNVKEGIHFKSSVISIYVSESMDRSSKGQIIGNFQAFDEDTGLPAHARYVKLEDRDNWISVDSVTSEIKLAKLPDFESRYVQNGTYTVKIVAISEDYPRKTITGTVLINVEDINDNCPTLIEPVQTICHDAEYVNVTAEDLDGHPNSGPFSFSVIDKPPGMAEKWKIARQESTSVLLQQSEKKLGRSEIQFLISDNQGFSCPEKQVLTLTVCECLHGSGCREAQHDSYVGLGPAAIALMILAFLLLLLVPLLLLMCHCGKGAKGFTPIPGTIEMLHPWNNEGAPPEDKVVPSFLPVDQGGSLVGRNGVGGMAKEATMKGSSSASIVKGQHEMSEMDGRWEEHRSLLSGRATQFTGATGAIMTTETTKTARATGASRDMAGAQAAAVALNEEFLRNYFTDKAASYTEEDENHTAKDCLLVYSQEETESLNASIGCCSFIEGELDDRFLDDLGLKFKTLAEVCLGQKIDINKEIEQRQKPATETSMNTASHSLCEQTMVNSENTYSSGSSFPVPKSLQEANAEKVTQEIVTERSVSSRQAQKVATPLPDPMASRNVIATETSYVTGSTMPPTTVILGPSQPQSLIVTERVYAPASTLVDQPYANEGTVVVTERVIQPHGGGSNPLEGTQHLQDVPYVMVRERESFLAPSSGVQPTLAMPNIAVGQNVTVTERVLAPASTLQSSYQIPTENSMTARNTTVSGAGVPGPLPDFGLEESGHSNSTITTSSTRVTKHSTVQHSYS
Experiment: flow cytometry, fluorescence staining of H1, H9 and iPSC cells (endogenous Dsg2 on the surface)
Procedure: Among those clones prepared in Example 2, the hybridoma clone which secreted the antibody comparatively stably was selected and the binding capacity to human pluripotent stem cells was investigated. Particularly, the cultured human pluripotent stem cells were separated by using collagenase IV. The cells were treated with cell separation buffer (GIBCO) for 20 minutes at 37° C., leading to the separation of the cells as single cells. The cells were passed through 40 μm strainer, and 2×10⁵ cells proceeded to flow cytometry. The human pluripotent stem cells prepared as single cells were suspended in PBA (1% BSA was dissolved in PBS), followed by reaction with the antibody supernatant at 4° C. for 30 minutes. Centrifugation was performed at 4° C. at 1200 rpm for 5 minutes and 100 μl of the supernatant was eliminated. The anti-mouse Ig-FITC (BD) was diluted (1:200). […]
To investigate the binding capacity of the antibody 6-1 purified in Example <3-2> to human pluripotent stem cells, fluorescence staining was performed by the same manner as described in Example <3-1> (FIG. 2A). […] In FIG. 2A, the blue line illustrates the fluorescence staining of human pluripotent stem cells with the monoclonal antibody 6-1, wherein the antibody 6-1 bound to all of those three kinds of human pluripotent stem cells.

binding result: binds
B1: monoclonal antibody 6-1 (antibody, V domains shown)
VH: QVKLQESGPELVRPGESVKISCKGSGYTFTDYAMHWVKQSPAKTLEWLGVISIYYDNTNYNQKFKGKATLTVDKSSSTAYMELARLTSEDSAIYYCAREGDYFALDYWGQGTSVTVSS
VL: DIVMTQSPAIMSASPGEKVTMTCSASSSVSYMYWYQQKPGSSPRLLIYDTSNLASGVPVRFSGSGSGTSYSLTISRMEAEDAATYYCQQWSSFPLTFGAGTKLELKR
notes: Mouse monoclonal antibody from hybridoma 6-1 (Balb/c mouse immunised with H9 cells, fused with NS1 myeloma); Purified from ascites on protein G-sepharose; hybridoma supernatant was used for screening; They were cloned with an IgG1 constant region primer and a kappa chain constant region primer
